Experimental data as given in PMC4837182.

Tests used:
[1] = target: recombinant Plasmodium falciparum Hsp70-1 (PfHsp70-1), full length (Plasmodium falciparum); experiment: SPR; ProteOn XPR36, ligand amine-coupled to GLC chip, analyte 125-2000 nM at 50 μl/min, PBS-Tween with 20 mM EDTA pH 7.4, 25 °C, Langmuir fit; no nucleotide
[2] = target: recombinant Plasmodium falciparum Hsp70-1 (PfHsp70-1), full length (Plasmodium falciparum); experiment: SPR; ProteOn XPR36, ligand amine-coupled to GLC chip, analyte 125-2000 nM at 50 μl/min, PBS-Tween with 20 mM EDTA pH 7.4, 25 °C, Langmuir fit; with 5 mM ADP
[3] = target: recombinant Plasmodium falciparum Hsp70-1 (PfHsp70-1), full length (Plasmodium falciparum); experiment: SPR; ProteOn XPR36, ligand amine-coupled to GLC chip, analyte 125-2000 nM at 50 μl/min, PBS-Tween with 20 mM EDTA pH 7.4, 25 °C, Langmuir fit; with 5 mM ATP

“recombinant Plasmodium falciparum Hsp70-z (PfHsp70-z) (natural protein)” showed a Kd [1] of 59.8 µM, a koff [1] of 2.96e-05 s⁻¹ and a kon [1] of 0.495 M⁻¹ s⁻¹. For the same substance, the Kd [2] was 12.1 µM, the koff [2] was 3.61e-05 s⁻¹ and the kon [2] was 298 M⁻¹ s⁻¹. The Kd [3] was 0.0241 µM, the koff [3] was 2.42e-05 s⁻¹ and the kon [3] was 997 M⁻¹ s⁻¹.
